This note sets out measurements from article PMC12663325, “Structural insights into mechanisms of zinc scavenging by the Candida albicans zincophore Pra1” (Nature Communications, 2025).

The series deals with the molecule itself. In words: cryo-EM structure; Pra1:Zn2+ complex; 20 mM Tris-HCl pH 8.0, 150 mM NaCl, 1 mM ZnSO4, 0.05% BSA as additive; C1 map, 2.5 Å.

B1: Candida albicans Pra1, recombinant wild type (full-length excluding the signal peptide) (natural protein)
chain: APVTVTRFVDASPTGYDWRADWVKGFPIDSSCNATQYNQLSTGLQEAQLLAEHARDHTLRFGSKSPFFRKYFGNETASAEVVGHFDNVVGADKSSILFLCDDLDDKCKNDGWAGYWRGSNHSDQTIICDLSFVTRRYLTQLCSSGYTVSKSKTNIFWAGDLLHRFWHLKSIGQLVIEHYADTYEEVLELAQENSTYAVRNSNSLIYYALDVYAYDVTIPGEGCNGDGTSYKKSDFSSFEDSDSGSDSGASSTASSSHQHTDSNPSATTDANSHCHTHADGEVHC
modifications: N-linked glycosylation at Asn 48, Asn 89, Asn 135 and Asn 208; three intramolecular disulfide bonds
notes: Pra1 of Candida albicans, codon-optimized full-length PRA1 excluding the signal peptide; the precursor is 299 amino acids including its N-terminal signal peptide; residues 31-251 are seen in the cryo-EM maps; A TEV protease site stood between the His-tag and Pra1; also called zincophore Pra1; wild-type Pra1; not shown: His-tag, N-terminal, cleaved
B1: the “stoichiometry N” value worked out at 6.

As a reminder, the stoichiometry N is a count of units in the complex or per binding partner.
